{"source": "patent US20200330603A1", "about": "“PEPTIDES FOR RENAL THERAPY” (FRED HUTCHINSON CANCER RESEARCH CENTER, priority 2015, published 2020)", "note": "Ends that are not written are not given here.", "data": [{"tested_on": "MCP-1 mRNA", "experiment": "Stress-induced mRNA by RT-PCR, MCP-1", "type": "in vivo, mice", "conditions": "four hours post-peptide administration", "protocol": "(§1) At four hours post-peptide administration, potential renal injury was assessed by measuring three stress-induced mRNAs (MCP-1, NGAL, and TNFa).", "values": [{"compound": "GSSCARPRENCNRMNILCCRGECVCPTFGDCFCYGD [SEQ ID NO: 54]", "mMCP-1/GAPDH": 0.74}, {"compound": "GSSCEPGTTFRDRCNTCRCGSDGRSAACTLRACPQ [SEQ ID NO: 46]", "mMCP-1/GAPDH": 0.64}]}, {"tested_on": "not listed separately", "experiment": "Accumulation of 14C-methylated peptide in renal tissue (Example 3)", "type": "in vivo, mice", "conditions": "14C autoradiography, iv 30-100 nmol per mouse; 3 hours and 24 hours", "protocol": "This example describes accumulation of peptides of this disclosure in renal tissue. ^14C-methylated knotted peptides were intravenously dosed into mice at 30-100 nmol per mouse. […] Cryosectioning was performed on a Bright-Hacker cryotome, taking 40 μm sagittal sections. Collected sections were allowed to freeze dry at −20° C. for 48-72 hours before being exposed to phosphor imager plates. Plates were exposed for 7 days then scanned on a RayTest CR-Bio35 scanner. Analysis was performed with AIDA WBA analysis software.", "values": [{"compound": "CNCCC(Oc1ccc(C(F)(F)F)cc1)c1ccccc1", "note": "(stereo not drawn) [fluoxetine, reference compound]", "renal signal pattern": "non-interactive passage through the kidneys"}, {"compound": "GSSCEPGRTFRDRCNTCRCGADGRSAACTLRACPNQ [SEQ ID NO: 4]", "renal signal pattern": "interacting with the kidney, likely cells of the proximal tubule"}]}, {"tested_on": "NGAL mRNA", "experiment": "Stress-induced mRNA by RT-PCR, NGAL", "type": "in vivo, mice", "conditions": "four hours post-peptide administration", "protocol": "as §1", "values": [{"compound": "GSSCARPRENCNRMNILCCRGECVCPTFGDCFCYGD [SEQ ID NO: 54]", "mNGAL/GAPDH": 1.58}, {"compound": "GSSCEPGTTFRDRCNTCRCGSDGRSAACTLRACPQ [SEQ ID NO: 46]", "mNGAL/GAPDH": 1.39}]}, {"tested_on": "not listed separately", "experiment": "Plasma BUN, assessment of renal injury (Example 14)", "type": "in vivo, mice", "conditions": "Table 4; 100 nmol iv; time not stated for this column (mRNAs at four hours)", "protocol": "(§2) This example illustrates assessment of renal injury by peptides of this disclosure. Mice were injected intravenously at a dose of 100 nmol, which is approximately 16 mg/kg. PBS was administered as a negative control. At 24 hours post-peptide administration, mice were euthanized and plasma blood urea nitrogen (BUN) and plasma creatinine were measured. The blood urea nitrogen (BUN) assay was performed to assess renal toxicity with a commercially available kit. Plasma creatinine concentrations were determined using the colorimetrically corrected Jaffe reaction method. Additionally, the kidneys from these mice were removed, sectioned, and stained using periodic acid Schiff (PAS). […] Histological analysis corroborated the mRNA/protein data.", "units": {"Plasma BUN": "mg/dL"}, "values": [{"compound": "GSSCARPRENCNRMNILCCRGECVCPTFGDCFCYGD [SEQ ID NO: 54]", "Plasma BUN": 26}, {"compound": "GSSCEPGTTFRDRCNTCRCGSDGRSAACTLRACPQ [SEQ ID NO: 46]", "Plasma BUN": 22}]}, {"tested_on": "not listed separately", "experiment": "Whole body autoradiography of 14C labeled peptides, renal cortex and blood", "type": "in vivo, mice", "conditions": "renal cortex vs blood from the ventricle, 100 nmol iv, 3 hours", "from_the_text": "(§3) This example describes radiolabeling of peptides of this disclosure. Several knotted peptides were radiolabeled by reductive methylation with ^14C formaldehyde and sodium cyanoborohydride with standard techniques. The sequences were engineered to have the amino acids, “G” and “S” at the N terminus. See Methods in Enzymology V91:1983 p. 570 and JBC 254(11):1979 p. 4359. An excess of formaldehyde was used to ensure complete methylation (dimethylation of every free amine). The labeled peptides were isolated via solid-phase extraction on Strata-X columns (Phenomenex 8B-S100-AAK), rinsed with water with 5% methanol, and recovered in methanol with 2% formic acid. Solvent was subsequently removed in a blowdown evaporator with gentle heat and a stream of nitrogen gas. The final product was verified and characterized by high performance liquid chromatography (HPLC).\n(§4) This example illustrates accumulation of peptides of the present disclosure in kidneys measured by whole body autoradiography. Peptides of the present disclosure were radiolabeled as described in EXAMPLE 2. 100 nmol of ^14C labeled peptides were administered intravenously in mice. Radiolabeled peptide signal was quantified in the renal cortex and blood from the ventricle in 2-3 sections per mouse in 2 mice total. Whole body autoradiography analysis was performed with AIDA.\n(§5) SEQ ID NO: 55 and SEQ ID NO: 119 ([…]), a linearized version of SEQ ID NO: 55, were radiolabeled with ^14C as described in EXAMPLE 2 and administered intravenously in mice at a dose of 100 nmol. Radiolabeled peptide signal was quantified in the renal cortex and blood from the ventricle in 2-3 sections per mouse in 2 mice total. Whole body autoradiography analysis was performed with AIDA.", "values": [{"compound": "GSSCARPRENCNRMNILCCRGECVCPTFGDCFCYGD [SEQ ID NO: 54]", "Signal ratio Kidney:Blood (3 hours)": 0.8}, {"compound": "GSSCEPGTTFRDRCNTCRCGSDGRSAACTLRACPQ [SEQ ID NO: 46]", "Signal ratio Kidney:Blood (3 hours)": 4.7}]}, {"tested_on": "not listed separately", "experiment": "Whole body autoradiography of 14C labeled peptides, renal cortex and blood", "type": "in vivo, mice", "conditions": "renal cortex vs blood from the ventricle, 100 nmol iv, 24 hours", "from_the_text": "as §3, §4, §5", "values": [{"compound": "GSSCARPRENCNRMNILCCRGECVCPTFGDCFCYGD [SEQ ID NO: 54]", "Signal ratio Kidney:Blood (24 hours)": 7.2}, {"compound": "GSSCEPGTTFRDRCNTCRCGSDGRSAACTLRACPQ [SEQ ID NO: 46]", "Signal ratio Kidney:Blood (24 hours)": 6}]}, {"tested_on": "not listed separately", "experiment": "Whole body autoradiography of 14C labeled peptides, renal cortex and blood", "type": "in vivo, mice", "conditions": "renal cortex, 100 nmol 14C labeled peptide iv, 3 hours", "from_the_text": "as §3, §4, §5", "values": [{"compound": "GSSCARPRENCNRMNILCCRGECVCPTFGDCFCYGD [SEQ ID NO: 54]", "Pixel density-Bkg/area (3 hours)": "1.48E+06"}, {"compound": "GSSCEPGTTFRDRCNTCRCGSDGRSAACTLRACPQ [SEQ ID NO: 46]", "Pixel density-Bkg/area (3 hours)": "8.83E+05"}]}, {"tested_on": "not listed separately", "experiment": "Whole body autoradiography of 14C labeled peptides, renal cortex and blood", "type": "in vivo, mice", "conditions": "renal cortex, 100 nmol 14C labeled peptide iv, 24 hours", "from_the_text": "as §3, §4, §5", "values": [{"compound": "GSSCARPRENCNRMNILCCRGECVCPTFGDCFCYGD [SEQ ID NO: 54]", "Pixel density-Bkg/area (24 hours)": "1.95E+06"}, {"compound": "GSSCEPGTTFRDRCNTCRCGSDGRSAACTLRACPQ [SEQ ID NO: 46]", "Pixel density-Bkg/area (24 hours)": "1.49E+06"}]}, {"tested_on": "not listed separately", "experiment": "Fluorescent peptide delivery to kidneys, whole body fluorescence analysis", "type": "in vivo", "conditions": "10 nmol iv, 3 hours, average and standard deviation from two mice", "protocol": "(§6) This example illustrates fluorescent peptide delivery to kidneys. Peptides were labeled by reaction with NHS esters of Cy5.5 or AlexaFluor 647 (AF647). For comparison, the free […] NHS esters were hydrolyzed to produce unreactive Cy5.5-COOH and AF647-COOH. A dose of 10 nmol of dye-labeled peptide or dye alone was administered intravenously and fluorescence was measured at 3 hours, 24 hours, and 48 hours after administration. At each time point, mice were frozen and sectioned for whole body fluorescence analysis, which was performed by scanning the sections on the Odyssey 2.1 at 84 um resolution using the 700 channel.\n(§7) Average and standard deviation are presented from two mice per group.", "values": [{"compound": "Cy5.5", "Fluorescence Signal in Kidneys 3 hours": "416 ± 170"}]}, {"tested_on": "not listed separately", "experiment": "Fluorescent peptide delivery to kidneys, whole body fluorescence analysis", "type": "in vivo", "conditions": "10 nmol iv, 24 hours, average and standard deviation from two mice", "protocol": "as §6, §7", "values": [{"compound": "Cy5.5", "Fluorescence Signal in Kidneys 24 hours": "88 ± 8"}]}, {"tested_on": "not listed separately", "experiment": "Fluorescent peptide delivery to kidneys, whole body fluorescence analysis", "type": "in vivo", "conditions": "10 nmol iv, 48 hours, average and standard deviation from two mice", "protocol": "as §6, §7", "values": [{"compound": "Cy5.5", "Fluorescence Signal in Kidneys 48 hours": "58 ± 11"}]}, {"tested_on": "HO-1 mRNA", "experiment": "mRNA by RT-PCR, HO-1", "type": "in vivo, mice", "conditions": "four hours post-peptide administration", "values": [{"compound": "GSSCARPRENCNRMNILCCRGECVCPTFGDCFCYGD [SEQ ID NO: 54]", "mHO-1/GAPDH": 0.65}, {"compound": "GSSCEPGTTFRDRCNTCRCGSDGRSAACTLRACPQ [SEQ ID NO: 46]", "mHO-1/GAPDH": 0.58}]}, {"tested_on": "not listed separately", "experiment": "Plasma creatinine, Jaffe reaction method (Example 14)", "type": "in vivo, mice", "conditions": "Table 4; 100 nmol iv; time not stated for this column (mRNAs at four hours)", "protocol": "as §2", "units": {"Plasma Creatinine": "mg/dL"}, "values": [{"compound": "GSSCARPRENCNRMNILCCRGECVCPTFGDCFCYGD [SEQ ID NO: 54]", "Plasma Creatinine": 0.26}, {"compound": "GSSCEPGTTFRDRCNTCRCGSDGRSAACTLRACPQ [SEQ ID NO: 46]", "Plasma Creatinine": 0.29}]}, {"tested_on": "not listed separately", "experiment": "Competitive renal uptake studies, fluorescence imaging of whole organs", "type": "in vivo, mice", "conditions": "2 nmol SEQ ID NO: 4-AF647 co-injected with 0, 10 or 50 nmol unlabeled peptide, 4 hours", "protocol": "(§8) This example describes competitive uptake studies of peptides of this disclosure in kidneys. Peptides of this disclosure were compared to known kidney homers (“competitors”) to assess the efficiency and strength of kidney targeting. Three competitors were tested against a peptide of SEQ ID NO: 4, and kidney uptake was quantified by fluorescence imaging of whole organs on a Spectrum IVIS imager.\n(§9) Kidneys from uninjected mice were used as a negative control. Fluorescence signal in each group was quantified to determine the average radiant efficiency in the kidneys from three mice per cohort. Data are shown as mean and error bars indicate standard deviation. A p-value of 0.0081 was calculated by a T-test, and the error bars indicate standard deviation. In this experiment, the unlabeled SEQ ID NO: 4 peptide competed with the SEQ ID NO: 4-AF647 as shown by decreased fluorescence and thus, decreased accumulation of the dye labeled peptide in the kidney. […] Fluorescence signal in each group was quantified to determine the average radiant efficiency in the kidneys from three mice per cohort. Data are shown as mean and error bars indicate standard deviation. Kidney uptake of a peptide of SEQ ID NO: 4-AF647 was not dampened by SEQ ID NO: 121 peptide even at the highest ratio of competitor. […] Fluorescence signal in each group was quantified to determine the average radiant efficiency in the kidneys from three mice per cohort. Data are shown as mean and error bars indicate standard deviation. A p-value of 0.015 was calculated by a Student's unpaired t-test.", "values": [{"compound": "GSSCEPGRTFRDRCNTCRCGADGRSAACTLRACPNQ [SEQ ID NO: 4]", "renal uptake in competition with unlabeled SEQ ID NO: 4 (FIG. 10)": "specific and saturable"}]}, {"tested_on": "not listed separately", "experiment": "Competitive renal uptake studies, fluorescence imaging of whole organs", "type": "in vivo, mice", "conditions": "2 nmol SEQ ID NO: 4-AF647 co-injected with 100 or 2000 nmol competitor, 1 hour", "protocol": "as §8, §9", "values": [{"compound": "KKEEEKKEEEKKEEEKK [SEQ ID NO: 121, reference compound]", "competition with kidney uptake of SEQ ID NO: 4-AF647 (FIG. 11)": "failed to compete"}]}, {"tested_on": "TNFa mRNA", "experiment": "Stress-induced mRNA by RT-PCR, TNFa", "type": "in vivo, mice", "conditions": "four hours post-peptide administration", "protocol": "as §1", "values": [{"compound": "GSSCARPRENCNRMNILCCRGECVCPTFGDCFCYGD [SEQ ID NO: 54]", "mTNFa/GAPDH": 2.42}, {"compound": "GSSCEPGTTFRDRCNTCRCGSDGRSAACTLRACPQ [SEQ ID NO: 46]", "mTNFa/GAPDH": 2.87}]}]}
